Biological target: GST-Rho-G17A (UniProt P61586 1-193, G17A)
Assay: pull-down

Chain of GST-Rho-G17A (P61586 whole entry G17A): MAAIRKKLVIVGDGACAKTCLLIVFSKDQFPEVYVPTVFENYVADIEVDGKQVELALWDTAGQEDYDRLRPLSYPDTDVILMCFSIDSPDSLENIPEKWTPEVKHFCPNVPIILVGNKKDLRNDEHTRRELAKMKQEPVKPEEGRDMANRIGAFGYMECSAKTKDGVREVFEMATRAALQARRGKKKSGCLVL

B1: mCh-LARG-W769A (natural protein, UniProt Q9NZN5 1-1544, looked up)
chain: MSGTQSTITDRFPLKKPIRHGSILNRESPTDKKQKVERIASHDFDPTDSSSKKTKSSSEESRSEIYGLVQRCVIIQKDDNGFGLTVSGDNPVFVQSVKEDGAAMRAGVQTGDRIIKVNGTLVTHSNHLEVVKLIKSGSYVALTVQGRPPGSPQIPLADSEVEPSVIGHMSPIMTSPHSPGASGNMERITSPVLMGEENNVVHNQKVEILRKMLQKEQERLQLLQEDYNRTPAQRLLKEIQEAKKHIPQLQEQLSKATGSAQDGAVVTPSRPLGDTLTVSEAETDPGDVLGRTDCSSGDASRPSSDNADSPKSGPKERIYLEENPEKSETIQDTDTQSLVGSPSTRIAPHIIGAEDDDFGTEHEQINGQCSCFQSIELLKSRPAHLAVFLHHVVSQFDPATLLCYLYSDLYKHTNSKETRRIFLEFHQFFLDRSAHLKVSVPDEMSADLEKRRPELIPEDLHRHYIQTMQERVHPEVQRHLEDFRQKRSMGLTLAESELTKLDAERDKDRLTLEKERTCAEQIVAKIEEVLMTAQAVEEDKSSTMQYVILMYMKHLGVKVKEPRNLEHKRGRIGFLPKIKQSMKKDKEGEEKGKRRGFPSILGPPRRPSRHDNSAIGRAMELQKARHPKHLSTPSSVSPEPQDSAKLRQSGLANEGTDAGYLPANSMSSVASGASFSQEGGKENDTGSKQVGETSAPGDTLDGTPRTLNTVFDFPPPPLDQVQEEECEVERVTEHGTPKPFRKFDSVAFGESQSEDEQFENDLETDPPNAQQLVSREVLLGLKPCEIKRQEVINELFYTERAHVRTLKVLDQVFYQRVSREGILSPSELRKIFSNLEDILQLHIGLNEQMKAVRKRNETSVIDQIGEDLLTWFSGPGEEKLKHAAATFCSNQPFALEMIKSRQKKDSRFQTFVQDAESNPLCRRLQLKDIIPTQMQRLTKYPLLLDNIAKYTEWPTEREKVKKAADHCRQILNYVNQAVKEAENKQRLEDYQRRLDTSSLKLSEYPNVEELRNLDLTKRKMIHEGPLVWKVNRDKTIDLYTLLLEDILVLLQKQDDRLVLRCHSKILASTADSKHTFSPVIKLSTVLVRQVATDNKALFVISMSDNGAQIYELVAQTVSEKTVWQDLICRMAASVKEQSTKPIPLPQSTPGEGDNDEEDPSKLKEEQHGISVTGLQSPDRDLGLESTLISSKPQSHSLSTSGKSEVRDLFVAERQFAKEQHTDGTLKEVGEDYQIAIPDSHLPVSEERWALDALRNLGLLKQLLVQQLGLTEKSVQEDWQHFPRYRTASQGPQTDSVIQNSENIKAYHSGEGHMPFRTGTGDIATCYSPRTSTESFAPRDSVGLAPQDSQASNILVMDHMIMTPEMPTMEPEGGLDDSGEHFFDAREAHSDENPSEGDGAVNKEEKDVNLRISGNYLILDGYDPVQESSTDEEVASSLTLQPMTGIPAVESTHQQQHSPQNTHSDGAISPFTPEFLVQQRWGAMEYSCFEIQSPSSCADSQSQIMEYIHKIEADLEHLKKVEESYTILCQRLAGSALTDKHSDKS
Q: For B1, which “fold decrease in pull down against wild-type LARG” value is on record?
A: 5 fold

— paper PMC3771942 (Molecular Biology of the Cell, 2013)
